Assay results: patent US20140199682A1

Legend:
[1] = biological target: hemagglutinin H3 A/Perth/16/2009 (influenza A virus H3); assay: Biolayer Interferometry (ForteBio Octet), kinetic analysis, apparent affinity
[2] = biological target: hemagglutinin of H3N2 Hong Kong/68 (influenza A virus H3N2); assay: as above

C05 CDR1 variant E27d-A (antibody)
Kd [1]: 28 nM
Kd [2]: 540 nM

C05 CDR1 variant F27b-A (antibody)
Kd [1]: 460 nM
Kd [2]: 610 nM

C05 CDR1 variant G27c-A (antibody)
Kd [1]: 33 nM
Kd [2]: 450 nM

C05 CDR1 variant Y31A (antibody)
Kd [1]: 550 nM
Kd [2]: 640 nM

C05 CDR1 variant Y31F (antibody)
Kd [1]: 6.8 nM
Kd [2]: 420 nM

C05 CDR1 variant Y31L (antibody)
Kd [1]: 560 nM
Kd [2]: 1400 nM

C05 CDR1 variant del(FGEST) (antibody)
Kd [1]: 1300 nM
Kd [2]: 690 nM
